Literature values in publication PMC5896957.

Target: exon junction complex (Homo sapiens) (UniProt P38919)
Sequence of UniProt P38919 (P38919 2-411, chain 1 of 3): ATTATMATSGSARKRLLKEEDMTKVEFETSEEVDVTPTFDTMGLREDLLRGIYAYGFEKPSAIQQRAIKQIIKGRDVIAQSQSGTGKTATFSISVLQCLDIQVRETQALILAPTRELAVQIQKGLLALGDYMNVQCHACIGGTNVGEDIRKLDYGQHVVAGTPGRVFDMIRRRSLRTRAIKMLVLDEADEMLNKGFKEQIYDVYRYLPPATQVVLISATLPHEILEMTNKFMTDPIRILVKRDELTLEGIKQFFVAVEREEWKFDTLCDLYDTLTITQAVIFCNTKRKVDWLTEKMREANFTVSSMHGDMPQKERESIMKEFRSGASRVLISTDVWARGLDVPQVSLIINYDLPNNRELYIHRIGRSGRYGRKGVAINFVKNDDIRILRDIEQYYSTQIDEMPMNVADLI
Sequence of UniProt P38919 (B1ARP8 whole entry, chain 2 of 3, further chain): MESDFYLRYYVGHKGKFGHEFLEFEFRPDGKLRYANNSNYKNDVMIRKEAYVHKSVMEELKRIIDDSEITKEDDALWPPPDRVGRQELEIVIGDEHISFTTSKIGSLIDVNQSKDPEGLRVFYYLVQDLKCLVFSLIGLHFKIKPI
Sequence of UniProt P38919 (O15234 whole entry, chain 3 of 3, further chain): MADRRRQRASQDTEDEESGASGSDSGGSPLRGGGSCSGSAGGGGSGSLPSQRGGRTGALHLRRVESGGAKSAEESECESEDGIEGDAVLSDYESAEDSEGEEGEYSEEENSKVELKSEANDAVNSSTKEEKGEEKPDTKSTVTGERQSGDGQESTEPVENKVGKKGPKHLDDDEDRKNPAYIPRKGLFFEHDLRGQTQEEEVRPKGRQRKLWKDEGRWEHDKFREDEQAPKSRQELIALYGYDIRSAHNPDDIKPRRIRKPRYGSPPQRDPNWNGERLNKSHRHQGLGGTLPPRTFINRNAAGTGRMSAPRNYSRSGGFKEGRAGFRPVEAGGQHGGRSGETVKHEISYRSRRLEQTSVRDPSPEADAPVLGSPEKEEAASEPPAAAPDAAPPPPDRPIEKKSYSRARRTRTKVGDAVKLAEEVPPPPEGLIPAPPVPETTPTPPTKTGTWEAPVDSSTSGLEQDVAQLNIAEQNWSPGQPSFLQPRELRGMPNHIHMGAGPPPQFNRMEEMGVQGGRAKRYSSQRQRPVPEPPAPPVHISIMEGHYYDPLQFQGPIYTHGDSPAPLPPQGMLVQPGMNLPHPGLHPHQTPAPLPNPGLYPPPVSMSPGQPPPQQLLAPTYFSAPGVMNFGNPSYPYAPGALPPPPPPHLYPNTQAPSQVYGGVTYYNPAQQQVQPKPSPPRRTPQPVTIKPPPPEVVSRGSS

## UPF3B peptide (from UniProt Q9BZI7)
  Kd: 10 µM
